Source: the supplement of paper PMC10126150
± gives the standard deviation of the averaged measurements.

System: ATP
Assay: switch fluorescence ratio, 500 uM ATP over buffer (Cy3 cluster intensity, sum of 5 cycles each) (fold (ratio)); higher = stronger signal-on switching upon ATP binding; sequences stand for … in TCGTCGGCAGCGTCAGATGTGTATAAGAGACAGTTTTTTTTTTTTTTTTTTTTTTTTT…TC
Settings: aptamer strand: ATP DNA aptamer (quencher-CACCTGGGGGAGTATTGCGGAGGAAGG + anchor), 100 nM annealed; ATP concentration: 500 uM
Outline: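 Per cluster, summed Cy3 intensity from the target cycles was divided by that from the buffer cycles to give the fluorescence ratio, then averaged per switch-domain sequence. Clusters outside 100-1000 RFU were excluded. The Cy3-labelled switching-strand clusters, on a modified Illumina MiSeq flow-cell, were annealed to 100 nM quencher-labelled ATP aptamer and imaged in selection buffer, then after 15 min with 500 uM ATP at 22 °C, for five cycles with NaOH stripping and re-annealing between them.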
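Further: ATP exposure 15 min at 22 °C before imaging.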

Row | Sequence | switch fluorescence ratio
1 | CTGGGGACGT | 0.9821 ± 0.0081
2 | CTGGGGAGAG | 1.01 ± 0.026
3 | CTGGGGAGCT | 1.03 ± 0.05
4 | CTGGGGAGTG | 0.977 ± 0.029
5 | CTGGGGATGG | 0.995 ± 0.02
6 | CTGGGGGACG | 1.02 ± 0.016
7 | CTGGGGGCGA | 1.04 ± 0.012
8 | CTGGGGGCGG | 0.986 ± 0.018
9 | CTGGGGGGAT | 0.987 ± 0.021
10 | CTGGGGGGCA | 0.997 ± 0.017
11 | CTGGGGGGCC | 1.01 ± 0.038
12 | CTGGGGGGCG | 0.984 ± 0.066
13 | CTGGGGGGTT | 0.994 ± 0.019
14 | CTGGGGGTCG | 1 ± 0.025
15 | CTGGGGTAAG | 1.01 ± 0.042
16 | CTGGGGTACT | 1.08 ± 0.056
17 | CTGGGGTGGG | 1.01 ± 0.042
18 | CTGGGGTTAC | 1.77 ± 1
19 | CTGGGGTTTC | 0.997 ± 0.026
20 | CTGGGTAACG | 0.996 ± 0.034
21 | CTGGGTAATT | 1.04 ± 0.059
22 | CTGGGTTAGT | 1.03 ± 0.035

Row | Sequence | switch fluorescence ratio
23 | CTGGGTTCTC | 0.989 ± 0.016
24 | CTGGTAAATC | 1.02 ± 0.026
25 | CTGGTAATGG | 1.04 ± 0.033
26 | CTGGTAGGGG | 0.983 ± 0.015
27 | CTGGTCAGGG | 0.988 ± 0.013
28 | CTGGTCGGGC | 0.982 ± 0.012
29 | CTGGTCGGGG | 1.017 ± 0.0096
30 | CTGGTGACTG | 0.986 ± 0.096
31 | CTGGTGCATT | 1.21 ± 0.11
32 | CTGGTTATAG | 0.989 ± 0.028
33 | CTGGTTATCG | 0.9998 ± 0.0032
34 | CTGGTTCGGT | 1.01 ± 0.037
35 | CTGGTTCTTC | 0.95 ± 0.022
36 | CTGTAAGGTC | 1.01 ± 0.019
37 | CTGTAATCGT | 0.9595 ± 0.0086
38 | CTGTAATTAT | 1 ± 0.011
39 | CTGTAGTCGG | 1.02 ± 0.03
40 | CTGTATATCT | 1.02 ± 0.022
41 | CTGTATGAGT | 0.9879 ± 0.0037
42 | CTGTATGCGG | 1.02 ± 0.089
43 | CTGTCAAGAT | 1.02 ± 0.024
44 | CTGTCAGATG | 1 ± 0.025

Row | Sequence | switch fluorescence ratio
45 | CTGTCCGGTA | 1.056 ± 0.008
46 | CTGTCGTAAA | 1.07 ± 0.019
47 | CTGTCGTTTC | 0.975 ± 0.044
48 | CTGTCTGGTG | 1.025 ± 0.0087
49 | CTGTCTTATG | 1 ± 0.068
50 | CTGTGCAGTC | 1.26 ± 0.075
51 | CTGTGGACCG | 0.974 ± 0.017
52 | CTGTGGCAGC | 1.033 ± 0.0099
53 | CTGTGGCTTT | 1.016 ± 0.0096
54 | CTGTGGGGCG | 1.01 ± 0.045
55 | CTGTGGGGGC | 1.01 ± 0.016
56 | CTGTGGTTTT | 0.98 ± 0.034
57 | CTGTGTGGAG | 0.991 ± 0.013
58 | CTGTGTGGGA | 1.01 ± 0.013
59 | CTGTGTTGGT | 0.992 ± 0.022
60 | CTGTTACTGA | 0.999 ± 0.041
61 | CTGTTACTGC | 1 ± 0.031
62 | CTGTTAGGGA | 0.958 ± 0.03
63 | CTGTTATCGC | 1.01 ± 0.042
64 | CTGTTATTGT | 0.972 ± 0.024
65 | CTGTTCGGCG | 0.979 ± 0.042
66 | CTGTTGGAAT | 0.978 ± 0.025

Row | Sequence | switch fluorescence ratio
67 | CTGTTTAGGA | 1.02 ± 0.053
68 | CTGTTTAGTG | 0.9822 ± 0.0061
69 | CTGTTTCGGT | 0.962 ± 0.021
70 | CTGTTTGTGA | 0.995 ± 0.011
71 | CTTAAAGTTT | 0.983 ± 0.041
72 | CTTAACTTGA | 1 ± 0.025
73 | CTTAAGGGAA | 0.9915 ± 0.0065
74 | CTTAAGGGAT | 1.0149 ± 0.00017
75 | CTTAAGGGCC | 1.02 ± 0.012
76 | CTTAATAGAC | 2.44 ± 1.9
77 | CTTAATCGGC | 1.09 ± 0.11
78 | CTTACGGGAA | 1.15 ± 0.1
79 | CTTACGTGCC | 1 ± 0.036
80 | CTTACTGCAT | 1.27 ± 0.068
81 | CTTAGCTCTT | 1.03 ± 0.022
82 | CTTAGGAGGT | 0.987 ± 0.025
83 | CTTAGGGGGC | 1.01 ± 0.051
84 | CTTAGGTTGT | 1.004 ± 0.0077
85 | CTTAGTCAGC | 1.06 ± 0.099
